According to the supplement of paper PMC7877785:
± gives the uncertainty stated by the source.

Assay: self-splicing fitness, log relative to wild type (ln ratio); higher = more splicing; Tetrahymena group I intron in knt gene, E. coli kanamycin selection, DiMSum; sequences stand for … in CUCUCU…GGAGGGAAAAGUUAUCAGGCAUGCACCUGGUAGCUAGUCUUUAAACCAAUAGAUUGCAUCGGUUUAAAAGGCAAGACCGUCAAAUUGCGGGAAAGGGGUCAACAGCCGUUCAGUACCAAGUCUCAGGGGAAACUUUGAGAUGGCCUUGCAAAGGGUAUGGUAAUAAGCUGACGGACAUGGUCCUAACCACGCAGCCAAGUCCUAAGUCAACAGAUCUUCUGUUGAUAUGGAUGCAGUUCACAGACUAAAUGUCGGUCGGGGAAGAUGUAUUCUUCUCAUAAGAUAUAGUCGGACCUCUCCUUAAUGGGAGCUAGCGGAUGAAGUGAUGCAACACUGGAGCCGCUGGGAACUAAUUUGUAUGCGAAAGUAUAUUGAUUAGUUUUGGAGUACUCGUGGUCG
Procedure, shortened: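 DiMSum derived fitness as the error-weighted combination of fold changes across replicates, kanamycin versus no kanamycin, normalised to wild type. E. coli BL21(DE3) held the library, which randomised all eight P1ex-region intron nucleotides within the knt kanamycin-resistance gene on pET-22b(+). Six replicate transformations grew overnight at 37°C or 30°C on LB agar with or without 25 μg/mL kanamycin, also containing 100 μg/mL carbenicillin, 50 μM IPTG and 0.2% rhamnose, and pooled colonies were amplicon-sequenced on an Illumina HiSeq 2500.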

| Sequence | self-splicing fitness (ln) (30 °C) | self-splicing fitness (ln) (37 °C) |
| --- | --- | --- |
| CGAGAGCAAUAUUACGGGCA | -3.47 ± 0.28 | -2.53 ± 0.44 |
| CGAGAGCAAUAUUACGGGUA | -2.27 ± 0.31 | -2.23 ± 0.27 |
| CGAGAGCAAUAUUACGGUAG | -1.73 ± 0.23 | -1.65 ± 0.33 |
| CGAGAGCAAUAUUACGGUGA | -3.9 ± 0.22 | -2.44 ± 0.2 |
| CGAGAGCAAUAUUACGUCUU | -3.66 ± 0.43 | -1.39 ± 0.22 |
| CGAGAGCAAUAUUACGUGAG | -1.51 ± 0.18 | -1.75 ± 0.48 |
| CGAGAGCAAUAUUACGUGUC | -3.05 ± 0.14 | -2.17 ± 0.16 |
| CGAUAGCAAUAUUACGAGAU | -4.01 ± 0.39 | -2.73 ± 0.25 |
| CGAUAGCAAUAUUACGAUAU | -3.53 ± 0.16 | -1.47 ± 0.12 |
| CGAUAGCAAUAUUACGCACG | -2.6 ± 0.36 | -1.91 ± 0.37 |
| CGAUAGCAAUAUUACGCAUG | -1.79 ± 0.07 | -0.761 ± 0.069 |
| CGAUAGCAAUAUUACGCCCC | -1.99 ± 0.29 | -0.838 ± 0.29 |
| CGAUAGCAAUAUUACGCGAU | -3.09 ± 0.18 | -2.6 ± 0.29 |
| CGAUAGCAAUAUUACGCGCG | -2.92 ± 0.15 | -1.59 ± 0.14 |
| CGAUAGCAAUAUUACGCUAC | -2.95 ± 0.29 | – |
| CGAUAGCAAUAUUACGCUCA | -0.478 ± 0.11 | 0.119 ± 0.15 |
| CGAUAGCAAUAUUACGGAAC | -2.5 ± 0.2 | -2.68 ± 0.25 |
| CGAUAGCAAUAUUACGGCCG | -0.641 ± 0.087 | -0.184 ± 0.15 |
| CGAUAGCAAUAUUACGGUAU | -2.78 ± 0.14 | -1.79 ± 0.17 |
| CGAUAGCAAUAUUACGUAUA | -2.37 ± 0.15 | -3.14 ± 0.23 |
| CGAUAGCAAUAUUACGUCAA | -3.18 ± 0.18 | -2.08 ± 0.15 |
| CGAUAGCAAUAUUACGUCAU | -2.2 ± 0.15 | -2.02 ± 0.18 |
| CGAUAGCAAUAUUACGUCCU | -1.29 ± 0.16 | -0.541 ± 0.19 |
| CGAUAGCAAUAUUACGUCUA | -1.89 ± 0.13 | -0.377 ± 0.11 |

| Sequence | self-splicing fitness (ln) (30 °C) | self-splicing fitness (ln) (37 °C) |
| --- | --- | --- |
| CGAUAGCAAUAUUACGUUCG | -3.06 ± 0.24 | -1.9 ± 0.33 |
| CGCAAGCAAUAUUACGAGAU | -3.04 ± 0.38 | -1.59 ± 0.26 |
| CGCAAGCAAUAUUACGAUGG | -0.351 ± 0.081 | -0.239 ± 0.095 |
| CGCAAGCAAUAUUACGAUGU | -1.6 ± 0.075 | -0.734 ± 0.1 |
| CGCAAGCAAUAUUACGCAAA | -1.92 ± 0.22 | -2.99 ± 0.37 |
| CGCAAGCAAUAUUACGCACA | -0.694 ± 0.096 | -0.825 ± 0.1 |
| CGCAAGCAAUAUUACGCCUU | -2.63 ± 0.17 | -2.62 ± 0.26 |
| CGCAAGCAAUAUUACGCGAG | -3.98 ± 0.31 | -2.43 ± 0.3 |
| CGCAAGCAAUAUUACGCGCA | -1.1 ± 0.086 | -1.46 ± 0.13 |
| CGCAAGCAAUAUUACGCGGG | -4.14 ± 0.42 | -2.31 ± 0.23 |
| CGCAAGCAAUAUUACGCUAA | -2.42 ± 0.17 | -3.24 ± 0.33 |
| CGCAAGCAAUAUUACGCUGA | -3.11 ± 0.26 | -2.01 ± 0.22 |
| CGCAAGCAAUAUUACGGGUC | -3.87 ± 0.23 | -3.77 ± 0.28 |
| CGCAAGCAAUAUUACGGGUG | -1.59 ± 0.062 | -0.366 ± 0.08 |
| CGCAAGCAAUAUUACGGUAC | -4.99 ± 0.45 | -3.6 ± 0.16 |
| CGCAAGCAAUAUUACGGUCC | -1.07 ± 0.076 | -0.628 ± 0.12 |
| CGCAAGCAAUAUUACGGUGA | -0.78 ± 0.084 | -0.469 ± 0.091 |
| CGCAAGCAAUAUUACGUACU | -1.64 ± 0.075 | -0.119 ± 0.096 |
| CGCAAGCAAUAUUACGUAUA | -3.79 ± 0.44 | -3.01 ± 0.2 |
| CGCAAGCAAUAUUACGUCUG | -1.13 ± 0.06 | -0.286 ± 0.075 |
| CGCAAGCAAUAUUACGUUAA | -2.49 ± 0.18 | -2.62 ± 0.21 |
| CGCAAGCAAUAUUACGUUAC | -4 ± 0.22 | -3.23 ± 0.27 |
| CGCAAGCAAUAUUACGUUGC | -3.41 ± 0.17 | -3.62 ± 0.29 |
